Common to all, as to assay: cell-based or functional assay
For test [1], the target named is Cathepsin B (Homo sapiens (Human)) (UniProt P07858).
The target of test [2] is Cathepsin X/Z/P (Homo sapiens (Human)) (UniProt Q9UBR2).
The target in test [3] is Cathepsin H (Homo sapiens (Human)) (UniProt P09668).

Some results are limits rather than exact numbers.

Cathepsin H (Homo sapiens (Human)), sequence (P09668 116-335 limits assumed, form in doubt): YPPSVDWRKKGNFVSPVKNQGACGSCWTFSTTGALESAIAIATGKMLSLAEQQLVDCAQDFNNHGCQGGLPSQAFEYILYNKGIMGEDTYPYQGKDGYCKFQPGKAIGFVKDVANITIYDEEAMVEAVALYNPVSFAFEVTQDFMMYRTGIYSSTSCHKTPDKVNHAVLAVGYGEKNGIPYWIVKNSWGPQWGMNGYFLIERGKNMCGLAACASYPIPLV
Sialostatin L, sequence (Q8MVB6 20-133, tags or fused parts left off): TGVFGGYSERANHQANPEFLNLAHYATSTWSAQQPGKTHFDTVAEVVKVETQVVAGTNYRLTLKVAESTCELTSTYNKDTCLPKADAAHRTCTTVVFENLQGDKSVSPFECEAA
Cathepsin X/Z/P (Homo sapiens (Human)), sequence (Q9UBR2 62-303 limits assumed, form in doubt): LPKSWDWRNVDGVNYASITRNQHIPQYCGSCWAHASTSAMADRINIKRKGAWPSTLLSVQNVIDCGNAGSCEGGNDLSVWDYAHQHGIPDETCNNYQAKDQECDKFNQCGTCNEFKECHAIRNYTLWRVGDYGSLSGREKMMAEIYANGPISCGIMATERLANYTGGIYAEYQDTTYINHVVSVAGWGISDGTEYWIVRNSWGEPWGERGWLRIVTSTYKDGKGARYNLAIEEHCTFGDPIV

As to “Sialostatin L2 (from UniProt B7PKZ1 19-132)”, the IC50 (inhibitor concentration at which 50% inhibition of enzymatic activity is achieved) in test [1] and in test [3] was > 10 µM in each case. Moreover, in test [2], the IC50 (inhibitor concentration at which 50% inhibition of enzymatic activity is achieved); 16 nM enzyme was > 10 µM.

As to “Sialostatin L (from UniProt Q8MVB6 20-133)”, the IC50 (inhibitor concentration at which 50% inhibition of enzymatic activity is achieved) in test [1] and in test [3] was > 10 µM throughout.

For the origin of these results see US20100278752A1.
